Measured values from publication PMC10786891, “Massively parallel profiling of RNA-targeting CRISPR-Cas13d”.

T1: EsCas13d, nuclease-dead (Eubacterium siraeum, UniProt B0MS50, R295A;H300A;R849A;H854A)
T1 sequence: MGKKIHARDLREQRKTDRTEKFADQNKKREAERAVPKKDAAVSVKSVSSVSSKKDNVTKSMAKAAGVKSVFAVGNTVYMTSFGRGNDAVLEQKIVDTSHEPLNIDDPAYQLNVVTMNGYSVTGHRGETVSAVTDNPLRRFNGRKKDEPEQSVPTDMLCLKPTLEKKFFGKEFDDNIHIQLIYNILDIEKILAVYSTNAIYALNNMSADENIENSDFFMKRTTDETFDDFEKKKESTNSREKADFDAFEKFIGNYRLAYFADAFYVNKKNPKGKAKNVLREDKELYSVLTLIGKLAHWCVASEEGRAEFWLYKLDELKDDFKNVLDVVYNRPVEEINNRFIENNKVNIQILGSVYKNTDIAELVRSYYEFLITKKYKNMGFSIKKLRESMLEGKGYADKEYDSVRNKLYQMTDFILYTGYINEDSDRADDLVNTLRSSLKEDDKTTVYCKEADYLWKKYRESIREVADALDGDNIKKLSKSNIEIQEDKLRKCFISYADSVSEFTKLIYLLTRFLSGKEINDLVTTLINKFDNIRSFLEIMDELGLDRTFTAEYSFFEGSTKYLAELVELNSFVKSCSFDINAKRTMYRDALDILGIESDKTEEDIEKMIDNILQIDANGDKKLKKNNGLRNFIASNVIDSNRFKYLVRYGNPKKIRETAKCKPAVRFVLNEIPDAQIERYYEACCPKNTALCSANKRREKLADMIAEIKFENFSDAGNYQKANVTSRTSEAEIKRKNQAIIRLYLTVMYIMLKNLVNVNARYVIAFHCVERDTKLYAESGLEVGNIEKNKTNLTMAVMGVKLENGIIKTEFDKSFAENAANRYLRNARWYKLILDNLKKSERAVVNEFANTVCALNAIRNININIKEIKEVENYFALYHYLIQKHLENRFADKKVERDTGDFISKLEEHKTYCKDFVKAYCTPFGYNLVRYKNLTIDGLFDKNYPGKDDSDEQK

B1: target 2 MT 5'PFS AAC 3'PFS AUA (mixed)
RNA 1: CACCCGUGCAAAAUUGCAGGGGUCUAAAACCUUCUCCAAAUUGUUUCAUCCU
RNA 2: GGGAAUGGAUCCACAUCUACGAAUUCAACAGGAUGAAACAAUUUGGAGAAGAUAAGAUCGGAAGAGCACACGU
B2: target 2 MT 5'PFS GGU 3'PFS UCG (mixed)
RNA 1: CACCCGUGCAAAAUUGCAGGGGUCUAAAACCUUCUCCAAAUUGUUUCAUCCU
RNA 2: GGGAAUGGAUCCACAUCUACGAAUUCGGUAGGAUGAAACAAUUUGGAGAAGUCGAGAUCGGAAGAGCACACGU
B3: target 2 MT 5'PFS CGC 3'PFS CAU (mixed)
RNA 1: CACCCGUGCAAAAUUGCAGGGGUCUAAAACCUUCUCCAAAUUGUUUCAUCCU
RNA 2: GGGAAUGGAUCCACAUCUACGAAUUCCGCAGGAUGAAACAAUUUGGAGAAGCAUAGAUCGGAAGAGCACACGU
B4: target 2 MT 5'PFS GGU 3'PFS UCC (mixed)
RNA 1: CACCCGUGCAAAAUUGCAGGGGUCUAAAACCUUCUCCAAAUUGUUUCAUCCU
RNA 2: GGGAAUGGAUCCACAUCUACGAAUUCGGUAGGAUGAAACAAUUUGGAGAAGUCCAGAUCGGAAGAGCACACGU
B5: target 2 MT 5'PFS GAU 3'PFS CAA (mixed)
RNA 1: CACCCGUGCAAAAUUGCAGGGGUCUAAAACCUUCUCCAAAUUGUUUCAUCCU
RNA 2: GGGAAUGGAUCCACAUCUACGAAUUCGAUAGGAUGAAACAAUUUGGAGAAGCAAAGAUCGGAAGAGCACACGU
B6: target 2 MT 5'PFS AAC 3'PFS AUU (mixed)
RNA 1: CACCCGUGCAAAAUUGCAGGGGUCUAAAACCUUCUCCAAAUUGUUUCAUCCU
RNA 2: GGGAAUGGAUCCACAUCUACGAAUUCAACAGGAUGAAACAAUUUGGAGAAGAUUAGAUCGGAAGAGCACACGU
B7: target 1 A18U,C22A (mixed)
RNA 1: CACCCGUGCAAAAAUGCAGGGGUCUAAAACUGAGCGGAUAACCUCUCUAUGG
RNA 2: GGGAAUGGAUCCACAUCUACGAAUUCGUAACAUUGAGAGGUUAUCCGCUCACCGAGAUCGGAAGAGCACACGU
B8: target 1 A1C,G13A (mixed)
RNA 1: CACCCGUGCAAAAAUGCAGGGGUCUAAAACUGAGCGGAUAACCUCUCUAUGG
RNA 2: GGGAAUGGAUCCACAUCUACGAAUUCGUACCAUAGAGAAGUUAUCCGCUCCCCGAGAUCGGAAGAGCACACGU
B9: target 2 MT 5'PFS GAU 3'PFS CAC (mixed)
RNA 1: CACCCGUGCAAAAUUGCAGGGGUCUAAAACCUUCUCCAAAUUGUUUCAUCCU
RNA 2: GGGAAUGGAUCCACAUCUACGAAUUCGAUAGGAUGAAACAAUUUGGAGAAGCACAGAUCGGAAGAGCACACGU
B10: target 2 MT 5'PFS AAC 3'PFS UUG (mixed)
RNA 1: CACCCGUGCAAAAUUGCAGGGGUCUAAAACCUUCUCCAAAUUGUUUCAUCCU
RNA 2: GGGAAUGGAUCCACAUCUACGAAUUCAACAGGAUGAAACAAUUUGGAGAAGUUGAGAUCGGAAGAGCACACGU
B11: target 2 MT 5'PFS GAU 3'PFS CAG (mixed)
RNA 1: CACCCGUGCAAAAUUGCAGGGGUCUAAAACCUUCUCCAAAUUGUUUCAUCCU
RNA 2: GGGAAUGGAUCCACAUCUACGAAUUCGAUAGGAUGAAACAAUUUGGAGAAGCAGAGAUCGGAAGAGCACACGU
B12: target 2 MT 5'PFS CAG 3'PFS CUG (mixed)
RNA 1: CACCCGUGCAAAAUUGCAGGGGUCUAAAACCUUCUCCAAAUUGUUUCAUCCU
RNA 2: GGGAAUGGAUCCACAUCUACGAAUUCCAGAGGAUGAAACAAUUUGGAGAAGCUGAGAUCGGAAGAGCACACGU
B13: target 2 MT 5'PFS CAG 3'PFS CUC (mixed)
RNA 1: CACCCGUGCAAAAUUGCAGGGGUCUAAAACCUUCUCCAAAUUGUUUCAUCCU
RNA 2: GGGAAUGGAUCCACAUCUACGAAUUCCAGAGGAUGAAACAAUUUGGAGAAGCUCAGAUCGGAAGAGCACACGU
B14: target 2 MT 5'PFS GGU 3'PFS AUC (mixed)
RNA 1: CACCCGUGCAAAAUUGCAGGGGUCUAAAACCUUCUCCAAAUUGUUUCAUCCU
RNA 2: GGGAAUGGAUCCACAUCUACGAAUUCGGUAGGAUGAAACAAUUUGGAGAAGAUCAGAUCGGAAGAGCACACGU
B15: target 2 MT 5'PFS GGU 3'PFS AUA (mixed)
RNA 1: CACCCGUGCAAAAUUGCAGGGGUCUAAAACCUUCUCCAAAUUGUUUCAUCCU
RNA 2: GGGAAUGGAUCCACAUCUACGAAUUCGGUAGGAUGAAACAAUUUGGAGAAGAUAAGAUCGGAAGAGCACACGU
B16: target 2 MT 5'PFS GGU 3'PFS AUG (mixed)
RNA 1: CACCCGUGCAAAAUUGCAGGGGUCUAAAACCUUCUCCAAAUUGUUUCAUCCU
RNA 2: GGGAAUGGAUCCACAUCUACGAAUUCGGUAGGAUGAAACAAUUUGGAGAAGAUGAGAUCGGAAGAGCACACGU
B17: target 2 MT 5'PFS UAC 3'PFS CCC (mixed)
RNA 1: CACCCGUGCAAAAUUGCAGGGGUCUAAAACCUUCUCCAAAUUGUUUCAUCCU
RNA 2: GGGAAUGGAUCCACAUCUACGAAUUCUACAGGAUGAAACAAUUUGGAGAAGCCCAGAUCGGAAGAGCACACGU
B18: target 2 MT 5'PFS UAC 3'PFS CCA (mixed)
RNA 1: CACCCGUGCAAAAUUGCAGGGGUCUAAAACCUUCUCCAAAUUGUUUCAUCCU
RNA 2: GGGAAUGGAUCCACAUCUACGAAUUCUACAGGAUGAAACAAUUUGGAGAAGCCAAGAUCGGAAGAGCACACGU
B19: target 1 A16C,C21A (mixed)
RNA 1: CACCCGUGCAAAAAUGCAGGGGUCUAAAACUGAGCGGAUAACCUCUCUAUGG
RNA 2: GGGAAUGGAUCCACAUCUACGAAUUCGUACAAUAGCGAGGUUAUCCGCUCACCGAGAUCGGAAGAGCACACGU
B20: target 2 MT 5'PFS UAC 3'PFS CCG (mixed)
RNA 1: CACCCGUGCAAAAUUGCAGGGGUCUAAAACCUUCUCCAAAUUGUUUCAUCCU
RNA 2: GGGAAUGGAUCCACAUCUACGAAUUCUACAGGAUGAAACAAUUUGGAGAAGCCGAGAUCGGAAGAGCACACGU
B21: target 2 MT 5'PFS GGU 3'PFS AUU (mixed)
RNA 1: CACCCGUGCAAAAUUGCAGGGGUCUAAAACCUUCUCCAAAUUGUUUCAUCCU
RNA 2: GGGAAUGGAUCCACAUCUACGAAUUCGGUAGGAUGAAACAAUUUGGAGAAGAUUAGAUCGGAAGAGCACACGU
B22: target 2 MT 5'PFS CUA 3'PFS CCA (mixed)
RNA 1: CACCCGUGCAAAAUUGCAGGGGUCUAAAACCUUCUCCAAAUUGUUUCAUCCU
RNA 2: GGGAAUGGAUCCACAUCUACGAAUUCCUAAGGAUGAAACAAUUUGGAGAAGCCAAGAUCGGAAGAGCACACGU
B23: target 2 MT 5'PFS GAU 3'PFS ACU (mixed)
RNA 1: CACCCGUGCAAAAUUGCAGGGGUCUAAAACCUUCUCCAAAUUGUUUCAUCCU
RNA 2: GGGAAUGGAUCCACAUCUACGAAUUCGAUAGGAUGAAACAAUUUGGAGAAGACUAGAUCGGAAGAGCACACGU
B24: target 2 MT 5'PFS CCU 3'PFS UCU (mixed)
RNA 1: CACCCGUGCAAAAUUGCAGGGGUCUAAAACCUUCUCCAAAUUGUUUCAUCCU
RNA 2: GGGAAUGGAUCCACAUCUACGAAUUCCCUAGGAUGAAACAAUUUGGAGAAGUCUAGAUCGGAAGAGCACACGU

The binders below were run against T1, EsCas13d, nuclease-dead (assay: crRNA (strand 1, pre-loaded); Mg2+; 40 mM Tris-HCl pH 7.5, 150 mM NaCl, 6 mM MgCl2, 1 mM DTT, 0.1% Tween-20, 0.2 mg/ml BSA; 25 C; 10 min per concentration, then washed). Conditions: tags: His6-TwinStrep-SUMO cleaved; N-terminal SNAP kept (SNAP-Surface 488); label: 3' end held by stalled T7 RNA polymerase.
B1 gave a Kd of 6.1 ± 1.4 nM.
With B2 the Kd was 29 ± 4 nM.
B3 showed a Kd of 4.5 ± 0.7 nM.
Work on B4 yielded a Kd of 76 ± 19 nM.
B5 gave a Kd of 14 ± 5 nM.
For B6, the Kd was 6.1 ± 1.8 nM.
In the case of B7, the Kd is reported as 58 ± 6 nM.
In the case of B8, the Kd is reported as 14.8 ± 2.5 nM.
Work on B9 yielded a Kd of 11.3 ± 2.4 nM.
With B10 the Kd was 8.5 ± 1.3 nM.
B11 gave a Kd of 8.7 ± 0.6 nM.
B12 showed a Kd of 7.2 ± 1.3 nM.
With B13 the Kd was 6.5 ± 1.3 nM.
For B14, the Kd was 20 ± 3 nM.
With B15 the Kd was 14.8 ± 2.7 nM.
With B16 the Kd was 16.1 ± 1.6 nM.
B17 was tested, and the Kd was roughly 19 nM.
For B18, the Kd was 17 ± 4 nM.
Binder B19 has a Kd of 66 ± 11 nM.
B20 gave a Kd of 6.1 ± 1.4 nM.
In the case of B21, the Kd is reported as 14.8 ± 1.6 nM.
Binder B22 has a Kd of 2.9 ± 1 nM.
Work on B23 yielded a Kd of 20.1 ± 3.2 nM.
B24 gave a Kd of 2.71 ± 0.32 nM.
